From article PMC10381965 (2022)

Biological target: CENP-ΔQU complex (CENP-Q^1–294 and CENP-U^30–266) (S. cerevisiae, UniProt P53298 1-294; P38313 30-266)
Assay: ITC

| Binder | Kd [µM] |
| --- | --- |
| Ac-AGDQQSINDRALSLLQRTRATKNW-NH2 [CENP-A^END-2 peptide] | 0.66 |
| Ac-AGDQQSINDAALSLLQRTRATKNW-NH2 [CENP-A^END-2-R37A peptide] | 9.67 |
